Reference: patent US20230406885A1, “CYCLIC PEPTIDES FOR TRAPPING INTERLEUKIN-1 BETA” (MERCK SHARP & DOHME LLC, priority 2022, published 2023)
*1 amine or outer side, *2 acyl side, *3 side chain or, on linkers, in order; H or OH if unused. [ ]: non-standard residue; d: D form. 3AzaPhe4AcPip = (S)-3-(6-(4-acetylpiperazin-1-yl)pyridin-3-yl)-2-aminopropanoic acid, CC(=O)N1CCN(c2ccc(C[C@H](N[*:1])C(=O)[*:2])cn2)CC1; Trp(4-Cl)(βS-Me) = C[C@@H](c1c[nH]c2cccc(Cl)c12)[C@H](N)C(=O)O; Ala(piperidin-4-yl) = O=C([C@H](CC1CCN([*:3])CC1)N[*:1])[*:2]; Pro(trans-4-NH2) = O=C([C@@H]1C[C@@H](N[*:3])CN1[*:1])[*:2]; Bip(4'-COOH) = N[C@@H](Cc1ccc(-c2ccc(C(=O)O)cc2)cc1)C(=O)O; 1Nal(3S-Me) = C[C@@H](c1cccc2ccccc12)[C@H](N)C(=O)O; Phe(4-COOH) = N[C@@H](Cc1ccc(C(=O)O)cc1)C(=O)O; h3Pal(5-CN) = N#Cc1cncc(CC[C@H](N)C(=O)O)c1; 1Nal = N[C@@H](Cc1cccc2ccccc12)C(=O)O; hTyr = N[C@@H](CCc1ccc(O)cc1)C(=O)O; 3Pal = N[C@@H](Cc1cccnc1)C(=O)O; 4Pal = N[C@@H](Cc1ccncc1)C(=O)O; dDab = NCC[C@@H](N)C(=O)O; Orn = NCCC[C@H](N)C(=O)O; dNMeA = CN[C@H](C)C(=O)O; Dap = NC[C@H](N)C(=O)O; Aib = CC(C)(N)C(=O)O

B1: SEQ ID NO: 39 (peptide)
peptide: cyclo([Bip(4'-COOH)]W[Phe(4-COOH)]G[Pro(trans-4-NH2)][Trp(4-Cl)(βS-Me)]D[dNMeA]G[Bip(4'-COOH)][4Pal]S[dA][hTyr])
SMILES: C[C@@H]1C(=O)NCC(=O)N[C@@H](Cc2ccc(-c3ccc(C(=O)O)cc3)cc2)C(=O)N[C@@H](Cc2ccncc2)C(=O)N[C@@H](CO)C(=O)N[C@H](C)C(=O)N[C@@H](CCc2ccc(O)cc2)C(=O)N[C@@H](Cc2ccc(-c3ccc(C(=O)O)cc3)cc2)C(=O)N[C@@H](Cc2c[nH]c3ccccc23)C(=O)N[C@@H](Cc2ccc(C(=O)O)cc2)C(=O)NCC(=O)N2C[C@H](N)C[C@H]2C(=O)N[C@@H]([C@@H](C)c2c[nH]c3cccc(Cl)c23)C(=O)N[C@@H](CC(=O)O)C(=O)N1C
B2: SEQ ID NO: 33 (peptide)
peptide: cyclo([Bip(4'-COOH)]W[Phe(4-COOH)]G[Pro(trans-4-NH2)][Trp(4-Cl)(βS-Me)]A[dNMeA]G[Bip(4'-COOH)][1Nal]L[Aib]G)
SMILES: CC(C)C[C@@H]1NC(=O)[C@H](Cc2cccc3ccccc23)NC(=O)[C@H](Cc2ccc(-c3ccc(C(=O)O)cc3)cc2)NC(=O)CNC(=O)[C@@H](C)N(C)C(=O)[C@H](C)NC(=O)[C@H]([C@@H](C)c2c[nH]c3cccc(Cl)c23)NC(=O)[C@@H]2C[C@@H](N)CN2C(=O)CNC(=O)[C@H](Cc2ccc(C(=O)O)cc2)NC(=O)[C@H](Cc2c[nH]c3ccccc23)NC(=O)[C@H](Cc2ccc(-c3ccc(C(=O)O)cc3)cc2)NC(=O)CNC(=O)C(C)(C)NC1=O
B3: SEQ ID NO: 32 (peptide)
peptide: cyclo([Bip(4'-COOH)]W[Phe(4-COOH)]G[Pro(trans-4-NH2)][1Nal(3S-Me)]D[dNMeA]G[Bip(4'-COOH)]WG[dDab][hTyr])
SMILES: C[C@@H]1C(=O)NCC(=O)N[C@@H](Cc2ccc(-c3ccc(C(=O)O)cc3)cc2)C(=O)N[C@@H](Cc2c[nH]c3ccccc23)C(=O)NCC(=O)N[C@H](CCN)C(=O)N[C@@H](CCc2ccc(O)cc2)C(=O)N[C@@H](Cc2ccc(-c3ccc(C(=O)O)cc3)cc2)C(=O)N[C@@H](Cc2c[nH]c3ccccc23)C(=O)N[C@@H](Cc2ccc(C(=O)O)cc2)C(=O)NCC(=O)N2C[C@H](N)C[C@H]2C(=O)N[C@@H]([C@@H](C)c2cccc3ccccc23)C(=O)N[C@@H](CC(=O)O)C(=O)N1C
B4: SEQ ID NO: 42 (peptide)
peptide: cyclo([Bip(4'-COOH)]W[Phe(4-COOH)]G[Pro(trans-4-NH2)][Trp(4-Cl)(βS-Me)]D[dNMeA]G[Bip(4'-COOH)]KL[dA][hTyr])
SMILES: CC(C)C[C@@H]1NC(=O)[C@H](CCCCN)NC(=O)[C@H](Cc2ccc(-c3ccc(C(=O)O)cc3)cc2)NC(=O)CNC(=O)[C@@H](C)N(C)C(=O)[C@H](CC(=O)O)NC(=O)[C@H]([C@@H](C)c2c[nH]c3cccc(Cl)c23)NC(=O)[C@@H]2C[C@@H](N)CN2C(=O)CNC(=O)[C@H](Cc2ccc(C(=O)O)cc2)NC(=O)[C@H](Cc2c[nH]c3ccccc23)NC(=O)[C@H](Cc2ccc(-c3ccc(C(=O)O)cc3)cc2)NC(=O)[C@H](CCc2ccc(O)cc2)NC(=O)[C@@H](C)NC1=O
B5: SEQ ID NO: 35 (peptide)
peptide: cyclo([Bip(4'-COOH)]W[Phe(4-COOH)]G[Pro(trans-4-NH2)][Trp(4-Cl)(βS-Me)]D[dNMeA]G[Bip(4'-COOH)][1Nal]L[Aib]G)
SMILES: CC(C)C[C@@H]1NC(=O)[C@H](Cc2cccc3ccccc23)NC(=O)[C@H](Cc2ccc(-c3ccc(C(=O)O)cc3)cc2)NC(=O)CNC(=O)[C@@H](C)N(C)C(=O)[C@H](CC(=O)O)NC(=O)[C@H]([C@@H](C)c2c[nH]c3cccc(Cl)c23)NC(=O)[C@@H]2C[C@@H](N)CN2C(=O)CNC(=O)[C@H](Cc2ccc(C(=O)O)cc2)NC(=O)[C@H](Cc2c[nH]c3ccccc23)NC(=O)[C@H](Cc2ccc(-c3ccc(C(=O)O)cc3)cc2)NC(=O)CNC(=O)C(C)(C)NC1=O
B6: SEQ ID NO: 40 (peptide)
peptide: cyclo([Bip(4'-COOH)]W[Phe(4-COOH)]G[Pro(trans-4-NH2)][Trp(4-Cl)(βS-Me)]D[dNMeA]G[Bip(4'-COOH)][Ala(piperidin-4-yl)]S[dA][hTyr])
SMILES: C[C@@H]1C(=O)NCC(=O)N[C@@H](Cc2ccc(-c3ccc(C(=O)O)cc3)cc2)C(=O)N[C@@H](CC2CCNCC2)C(=O)N[C@@H](CO)C(=O)N[C@H](C)C(=O)N[C@@H](CCc2ccc(O)cc2)C(=O)N[C@@H](Cc2ccc(-c3ccc(C(=O)O)cc3)cc2)C(=O)N[C@@H](Cc2c[nH]c3ccccc23)C(=O)N[C@@H](Cc2ccc(C(=O)O)cc2)C(=O)NCC(=O)N2C[C@H](N)C[C@H]2C(=O)N[C@@H]([C@@H](C)c2c[nH]c3cccc(Cl)c23)C(=O)N[C@@H](CC(=O)O)C(=O)N1C
B7: SEQ ID NO: 37 (peptide)
peptide: cyclo([Bip(4'-COOH)]W[Phe(4-COOH)]G[Pro(trans-4-NH2)][Trp(4-Cl)(βS-Me)]D[dNMeA]G[Bip(4'-COOH)][1Nal][Orn][Aib]G)
SMILES: C[C@@H]1C(=O)NCC(=O)N[C@@H](Cc2ccc(-c3ccc(C(=O)O)cc3)cc2)C(=O)N[C@@H](Cc2cccc3ccccc23)C(=O)N[C@@H](CCCN)C(=O)NC(C)(C)C(=O)NCC(=O)N[C@@H](Cc2ccc(-c3ccc(C(=O)O)cc3)cc2)C(=O)N[C@@H](Cc2c[nH]c3ccccc23)C(=O)N[C@@H](Cc2ccc(C(=O)O)cc2)C(=O)NCC(=O)N2C[C@H](N)C[C@H]2C(=O)N[C@@H]([C@@H](C)c2c[nH]c3cccc(Cl)c23)C(=O)N[C@@H](CC(=O)O)C(=O)N1C
B8: SEQ ID NO: 4 (peptide)
peptide: cyclo([3AzaPhe4AcPip]W[Phe(4-COOH)]G[Pro(trans-4-NH2)][1Nal(3S-Me)]D[dNMeA]G[Bip(4'-COOH)]W[Dap][dA][h3Pal(5-CN)])
SMILES: CC(=O)N1CCN(c2ccc(C[C@@H]3NC(=O)[C@H](CCc4cncc(C#N)c4)NC(=O)[C@@H](C)NC(=O)[C@H](CN)NC(=O)[C@H](Cc4c[nH]c5ccccc45)NC(=O)[C@H](Cc4ccc(-c5ccc(C(=O)O)cc5)cc4)NC(=O)CNC(=O)[C@@H](C)N(C)C(=O)[C@H](CC(=O)O)NC(=O)[C@H]([C@@H](C)c4cccc5ccccc45)NC(=O)[C@@H]4C[C@@H](N)CN4C(=O)CNC(=O)[C@H](Cc4ccc(C(=O)O)cc4)NC(=O)[C@H](Cc4c[nH]c5ccccc45)NC3=O)cn2)CC1
B9: SEQ ID NO: 34 (peptide)
peptide: cyclo([Bip(4'-COOH)]W[Phe(4-COOH)]G[Pro(trans-4-NH2)][Trp(4-Cl)(βS-Me)]D[dNMeA]G[Bip(4'-COOH)][1Nal][Dap][Aib][h3Pal(5-CN)])
SMILES: C[C@@H]1C(=O)NCC(=O)N[C@@H](Cc2ccc(-c3ccc(C(=O)O)cc3)cc2)C(=O)N[C@@H](Cc2cccc3ccccc23)C(=O)N[C@@H](CN)C(=O)NC(C)(C)C(=O)N[C@@H](CCc2cncc(C#N)c2)C(=O)N[C@@H](Cc2ccc(-c3ccc(C(=O)O)cc3)cc2)C(=O)N[C@@H](Cc2c[nH]c3ccccc23)C(=O)N[C@@H](Cc2ccc(C(=O)O)cc2)C(=O)NCC(=O)N2C[C@H](N)C[C@H]2C(=O)N[C@@H]([C@@H](C)c2c[nH]c3cccc(Cl)c23)C(=O)N[C@@H](CC(=O)O)C(=O)N1C
B10: SEQ ID NO: 38 (peptide)
peptide: cyclo([Bip(4'-COOH)]W[Phe(4-COOH)]G[Pro(trans-4-NH2)][Trp(4-Cl)(βS-Me)]D[dNMeA]G[Bip(4'-COOH)][3Pal]S[dA][hTyr])
SMILES: C[C@@H]1C(=O)NCC(=O)N[C@@H](Cc2ccc(-c3ccc(C(=O)O)cc3)cc2)C(=O)N[C@@H](Cc2cccnc2)C(=O)N[C@@H](CO)C(=O)N[C@H](C)C(=O)N[C@@H](CCc2ccc(O)cc2)C(=O)N[C@@H](Cc2ccc(-c3ccc(C(=O)O)cc3)cc2)C(=O)N[C@@H](Cc2c[nH]c3ccccc23)C(=O)N[C@@H](Cc2ccc(C(=O)O)cc2)C(=O)NCC(=O)N2C[C@H](N)C[C@H]2C(=O)N[C@@H]([C@@H](C)c2c[nH]c3cccc(Cl)c23)C(=O)N[C@@H](CC(=O)O)C(=O)N1C
B11: SEQ ID NO: 41 (peptide)
peptide: cyclo([Bip(4'-COOH)]W[Phe(4-COOH)]G[Pro(trans-4-NH2)][Trp(4-Cl)(βS-Me)]D[dNMeA]G[Bip(4'-COOH)][Dap]S[dA][hTyr])
SMILES: C[C@@H]1C(=O)NCC(=O)N[C@@H](Cc2ccc(-c3ccc(C(=O)O)cc3)cc2)C(=O)N[C@@H](CN)C(=O)N[C@@H](CO)C(=O)N[C@H](C)C(=O)N[C@@H](CCc2ccc(O)cc2)C(=O)N[C@@H](Cc2ccc(-c3ccc(C(=O)O)cc3)cc2)C(=O)N[C@@H](Cc2c[nH]c3ccccc23)C(=O)N[C@@H](Cc2ccc(C(=O)O)cc2)C(=O)NCC(=O)N2C[C@H](N)C[C@H]2C(=O)N[C@@H]([C@@H](C)c2c[nH]c3cccc(Cl)c23)C(=O)N[C@@H](CC(=O)O)C(=O)N1C
B12: SEQ ID NO: 36 (peptide)
peptide: cyclo([Bip(4'-COOH)]W[Phe(4-COOH)]G[Pro(trans-4-NH2)][Trp(4-Cl)(βS-Me)]D[dNMeA]G[Bip(4'-COOH)][1Nal]L[Aib][hTyr])
SMILES: CC(C)C[C@@H]1NC(=O)[C@H](Cc2cccc3ccccc23)NC(=O)[C@H](Cc2ccc(-c3ccc(C(=O)O)cc3)cc2)NC(=O)CNC(=O)[C@@H](C)N(C)C(=O)[C@H](CC(=O)O)NC(=O)[C@H]([C@@H](C)c2c[nH]c3cccc(Cl)c23)NC(=O)[C@@H]2C[C@@H](N)CN2C(=O)CNC(=O)[C@H](Cc2ccc(C(=O)O)cc2)NC(=O)[C@H](Cc2c[nH]c3ccccc23)NC(=O)[C@H](Cc2ccc(-c3ccc(C(=O)O)cc3)cc2)NC(=O)[C@H](CCc2ccc(O)cc2)NC(=O)C(C)(C)NC1=O

Target: Recombinant human IL-1β (BioLegend 579404) (human, UniProt P01584 117-269)
Assay: cell-based or functional assay

| Binder | MRC5 IC50 [nM] |
| --- | --- |
| B1 | 0.232 |
| B2 | 0.544 |
| B3 | 0.033 |
| B4 | 0.627 |
| B5 | 0.16 |
| B6 | 0.508 |
| B7 | 0.103 |
| B8 | 0.0438 |
| B9 | 0.0755 |
| B10 | 0.217 |
| B11 | 0.469 |
| B12 | 0.0522 |
